Laboratory results taken from US20070259417A1 (published 2007).
Ends that are not written are not given here.

Experiments:
[1] = target: trypsin (UniProt P00760); test: pfu eluted from trypsin beads
[2] = target: trypsin (UniProt P00760); test: pfu acid eluted from trypsin beads
[3] = target: agarose-immobilized anhydro-trypsin (UniProt P00760); test: pfu eluted from anhydrotrypsin beads
[4] = target: T1, human neutrophil elastase (human, UniProt P08246 30-247); test: pfu acid eluted from HNE beads
T1 construct: also called HNE; immobilized HNE
T1 sequence (looked up): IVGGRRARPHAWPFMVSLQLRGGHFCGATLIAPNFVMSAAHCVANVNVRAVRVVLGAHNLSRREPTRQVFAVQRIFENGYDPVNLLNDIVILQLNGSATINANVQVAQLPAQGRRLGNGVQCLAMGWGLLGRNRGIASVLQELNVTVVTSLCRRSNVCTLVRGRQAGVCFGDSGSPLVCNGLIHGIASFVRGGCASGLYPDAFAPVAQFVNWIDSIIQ

[5] = target: agarose-immobilized anhydro-trypsin (UniProt P00760); test: pfu acid eluted from anhydrotrypsin beads, experiment 2
[6] = target: agarose-immobilized anhydro-trypsin (UniProt P00760); test: phage titer after incubation with anhydrotrypsin beads
[7] = target: agarose-immobilized anhydro-trypsin (UniProt P00760); test: pfu acid eluted from anhydrotrypsin beads, experiment 1
[8] = target: trypsin (UniProt P00760); test: pH 2.2 eluate from immobilized active trypsin, bound in TBS pH 7.5
[9] = target: agarose-immobilized anhydro-trypsin (UniProt P00760); test: titer after 1 h with 2 ul immobilized anhydro-trypsin
[10] = target: agarose-immobilized anhydro-trypsin (UniProt P00760); test: titer after 2 h with 10 ul immobilized anhydro-trypsin
[11] = target: agarose-immobilized streptavidin (UniProt P22629); test: titer after 2 h with 5 ul immobilized streptavidin
[12] = target: agarose-immobilized anhydro-trypsin (UniProt P00760); test: titer after 1 h with 5 ul immobilized anhydro-trypsin
[13] = target: agarose-immobilized anhydro-trypsin (UniProt P00760); test: dot blot of phage eluted at pH 2.2 from 2 ul immobilized anhydro-trypsin
[14] = target: agarose-immobilized anhydro-trypsin (UniProt P00760); test: titer after 4 h with 2 ul immobilized anhydro-trypsin
[15] = target: agarose-immobilized streptavidin (UniProt P22629); test: dot blot of phage eluted at pH 2.2 from 5 ul immobilized streptavidin
[16] = target: trypsin (UniProt P00760); test: pH 2.2 eluate from immobilized active trypsin, bound in CBS pH 6.5
[17] = target: agarose-immobilized anhydro-trypsin (UniProt P00760); test: titer after 2 h with 2 ul immobilized anhydro-trypsin
[18] = target: agarose-immobilized anhydro-trypsin (UniProt P00760); test: titer after 1 h with 10 ul immobilized anhydro-trypsin
[19] = target: agarose-immobilized anhydro-trypsin (UniProt P00760); test: titer after 4 h with 5 ul immobilized anhydro-trypsin
[20] = target: agarose-immobilized streptavidin (UniProt P22629); test: titer after 1 h with 5 ul immobilized streptavidin
[21] = target: agarose-immobilized anhydro-trypsin (UniProt P00760); test: titer after 2 h with 5 ul immobilized anhydro-trypsin
[22] = target: agarose-immobilized anhydro-trypsin (UniProt P00760); test: dot blot of phage eluted at pH 2.2 from 10 ul immobilized anhydro-trypsin
[23] = target: agarose-immobilized anhydro-trypsin (UniProt P00760); test: titer after 4 h with 10 ul immobilized anhydro-trypsin
[24] = target: agarose-immobilized streptavidin (UniProt P22629); test: titer after 4 h with 5 ul immobilized streptavidin
[25] = target: agarose-immobilized anhydro-trypsin (UniProt P00760); test: dot blot of phage eluted at pH 2.2 from 5 ul immobilized anhydro-trypsin
[26] = target: M13mp18 phage; test: titer of M13MP18 after normal rabbit IgG and protein A beads
[27] = target: M13mp18 phage; test: titer of M13MP18 after normal rabbit IgG
[28] = target: T1, human neutrophil elastase; test: abbreviated pH elution from HNE beads
Method: (§1) To test if the changes at positions 15, 16, 18, and 19 of the ITI-DI-III fusion protein influence binding of display phage to HNE beads, abbreviated pH elution profiles were measured. […] The beads were washed and phage were eluted as described (Example III), except that only three pH elutions were performed: pH 7.0, 3.5, and 2.0.

[29] = target: T1, human neutrophil elastase; test: HNE beads, abbreviated elution, pH 3.5
Method: as §1

[30] = target: T1, human neutrophil elastase; test: extended pH elution from HNE beads
Method: To test if phage displaying the ITI-DI-III fusion protein interact strongly with the proteases human neutrophil elastase (HNE) or cathepsin-G, aliquots of display phage were incubated with agarose-immobilized HNE or cathepsin-G beads (HNE beads or Cat-G beads, respectively). […] The procession in lowering pH during the elution was: pH 7.0, 6.0, 5.5, 5.0, 4.5, 4.0, 3.5, 3.0, 2.5, and 2.0. Following elution and neutralization, the various input, wash, and pH elution fractions were titered.

[31] = target: human Cathepsin G (human) (UniProt P08311); test: Cat-G beads, pH 2.5 eluate
[32] = target: human Cathepsin G (human) (UniProt P08311); test: Cat-G beads, pH 6.0 eluate
[33] = target: human Cathepsin G (human) (UniProt P08311); test: Cat-G beads, pH 4.5 eluate
[34] = target: human Cathepsin G (human) (UniProt P08311); test: Cat-G beads, SUM of all pH elution fractions
[35] = target: human Cathepsin G (human) (UniProt P08311); test: Cat-G beads, pH 5.0 eluate
[36] = target: human Cathepsin G (human) (UniProt P08311); test: Cat-G beads, pH 4.0 eluate
[37] = target: T1, human neutrophil elastase; test: HNE beads, abbreviated elution, SUM of pH fractions
Method: as §1

[38] = target: T1, human neutrophil elastase; test: HNE beads, abbreviated elution, pH 2.0
Method: as §1

[39] = target: human Cathepsin G (human) (UniProt P08311); test: Cat-G beads, pH 2.0 eluate
[40] = target: human Cathepsin G (human) (UniProt P08311); test: Cat-G beads, pH 3.5 eluate
[41] = target: human Cathepsin G (human) (UniProt P08311); test: Cat-G beads, pH 7.0 eluate
[42] = target: human Cathepsin G (human) (UniProt P08311); test: Cat-G beads, pH 3.0 eluate
[43] = target: T1, human neutrophil elastase; test: HNE beads, abbreviated elution, pH 7.0
Method: as §1

[44] = target: human Cathepsin G (human) (UniProt P08311); test: Cat-G beads, pH 5.5 eluate

Chain of human Cathepsin G (human) (P08311 21-244 limits assumed): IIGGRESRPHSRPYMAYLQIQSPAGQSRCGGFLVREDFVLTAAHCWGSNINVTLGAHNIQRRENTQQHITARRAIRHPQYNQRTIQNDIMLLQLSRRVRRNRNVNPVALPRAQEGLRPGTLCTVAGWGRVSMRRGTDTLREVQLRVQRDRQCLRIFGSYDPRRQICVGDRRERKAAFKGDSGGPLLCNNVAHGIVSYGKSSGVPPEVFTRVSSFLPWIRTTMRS
Chain of agarose-immobilized streptavidin (P22629 37-163 limits assumed): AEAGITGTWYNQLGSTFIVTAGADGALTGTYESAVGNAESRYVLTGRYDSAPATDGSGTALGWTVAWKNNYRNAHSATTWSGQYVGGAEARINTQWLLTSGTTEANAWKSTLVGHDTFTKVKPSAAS
Chain of agarose-immobilized anhydro-trypsin (P00760 24-246): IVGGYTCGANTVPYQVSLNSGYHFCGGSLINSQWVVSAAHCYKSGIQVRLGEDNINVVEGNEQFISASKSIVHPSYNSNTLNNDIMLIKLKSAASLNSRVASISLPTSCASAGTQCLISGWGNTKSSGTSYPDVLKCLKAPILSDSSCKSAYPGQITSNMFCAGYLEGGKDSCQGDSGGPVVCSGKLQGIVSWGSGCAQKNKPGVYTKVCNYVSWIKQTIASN
Chain of trypsin (P00760 24-246): as above

## M13mp18 phage
[1]
  binding relative to M13MP18: 1 fold
  eluted phage, percent of input: 0.00023%
[2]
  binding relative to M13MP18: 1 fold
  eluted phage, percent of input: 0.0005%
[3]
  binding relative to M13MP18: 1 fold
  eluted phage, percent of input: 0.1%
[4]
  binding relative to M13MP18: 1 fold
  eluted phage, percent of input: 0.0003%
[5]
  binding relative to M13MP18: 1 fold
  eluted phage, percent of input: 0.3%
[6]
  pfu after incubation as percent of input: 121%
[7]
  binding relative to M13MP18: 1 fold
  eluted phage, percent of input: 0.2%

## MK phage
[8]
  percent of input phage: 0.00034%
  total pfu recovered in elution buffer: 1.48e+06 pfu
[9]
  percent residual titer: 97%
[10]
  percent residual titer: 93%
[11]
  percent residual titer: 96%
[12]
  percent residual titer: 110%
[13]
  percent of total phage recovered in elution buffer: < 1%
[14]
  percent residual titer: 95%
[15]
  percent of total phage recovered in elution buffer: < 1%
[16]
  percent of input phage: 0.00028%
  total pfu recovered in elution buffer: 1.35e+06 pfu
[17]
  percent residual titer: 103%
[18]
  percent residual titer: 99%
[19]
  percent residual titer: 96%
[20]
  percent residual titer: 106%
[21]
  percent residual titer: 111%
[22]
  percent of total phage recovered in elution buffer: < 1%
[23]
  percent residual titer: 106%
[24]
  percent residual titer: 98%
[25]
  percent of total phage recovered in elution buffer: < 1%

## normal rabbit IgG / normal rabbit serum (antibody)
[26]
  percent of input phage (pfu): 88%
[27]
  percent of input phage (pfu): 104%

B1: MA-ITI-E7 phage (designed binder)
chain: KEDSCQLGYSAGPCVAMFPRYFYNGTSMACETFQYGGCMGNGNNFVTEKECLQTCR
modifications: not fully specified; cysteine pairing not given here
notes: two phage strains (1 and 2) of the same construct were tested; also called MA-ITI-E7 1; MA-ITI-E7 2; not shown: The join to the display carrier
[28]
  fold greater total fraction of input eluted than MA-ITI phage: 10 fold
  fold lower total fraction of input eluted than EpiNE-7 phage: 40 fold
[29]
  fraction of input: 8e-05
[30]
  fold lower total fraction of input eluted than EpiNE-7 phage: ~40 fold

B2: MA-ITI phage (other, human, UniProt P02760 227-281, looked up)
chain: KEDSCQLGYSAGPCMGMTSRYFYNGTSMACETFQYGGCMGNGNNFVTEKECLQTC
notes: residue range counts on the mature ITI light chain (UTI), not on the AMBP precursor entry; also called MA-ITI 2; MA-ITT; not shown: M13 gene III protein, mature
[31]
  fraction of input: 5.9e-07
  total pfu in sample: 270000 pfu
[29]
  fraction of input: 3e-06
[32]
  fraction of input: 5e-06
  total pfu in sample: 2.3e+06 pfu
[33]
  fraction of input: 1.5e-06
  total pfu in sample: 670000 pfu
[34]
  fraction of input: 3e-05
  total pfu in sample: 1.4e+07 pfu
[35]
  fraction of input: 2.4e-06
  total pfu in sample: 1.1e+06 pfu
[36]
  fraction of input: 9.6e-07
  total pfu in sample: 440000 pfu
[37]
  fraction of input: 1.4e-05
[38]
  fraction of input: 1e-06
[39]
  fraction of input: 7e-07
  total pfu in sample: 320000 pfu
[40]
  fraction of input: 9.6e-07
  total pfu in sample: 440000 pfu
[41]
  fraction of input: 1.3e-05
  total pfu in sample: 6.1e+06 pfu
[42]
  fraction of input: 7.8e-07
  total pfu in sample: 360000 pfu
[43]
  fraction of input: 1e-05
[44]
  fraction of input: 2.6e-06
  total pfu in sample: 1.2e+06 pfu
